The series can be described thus: soluble fraction after stress (log2 fold change); higher = more stays soluble; pooled small domains, quantitative proteomics. The conditions noted are these: stress: 75 degC.
Regarding “HMEVSTRQVRAALRDIIEAEDKKRPLSDEAITARLREQGLPVARRTVAKYREQMGILAARLRK”, the “soluble fraction (log2)” value is -0.662.

In the case of “HMEVVRVEPGATVRDLGEALGVPPTRIIQILMGLGEMKTVTQTLSTEEIELVAEELGRRVEV”, the “soluble fraction (log2)” value was -0.108.

“HMEWVVVPDVRRQLLPEAQRRVNKARLRLEVAGGWPAEPLLAMVVDQKPGPETRVPLNSIVVVVVRNLP”: the “soluble fraction (log2)” value was -0.981.

For the sequence “HMEYELYALKEEVLKRLTREDRELLILLFEERRTIHAVAQRLGLSDSAVYKRRTQLVNKVKVIASMLM”, the “soluble fraction (log2)” value was -2.22.

As to “HMEYKNYYDSPVGRLELLSDGVSLTAVLFENQQGDGTREENTSLAIFKEATQWLDAYFKGDNPEITIPL”, the “soluble fraction (log2)” value stood at 0.0228.

Turning to “HMEYKTGIINTNKVRVRNAADADATVIFAINKDIKVKILAEENGFYKIGVSVKNRGNGEDLIGFVKKELIT”, the “soluble fraction (log2)” value was -1.81.

As for “HMEYQTVEKSEAEQIIQELEKAERLALKVYSKNDIITGISVSDGKSYYFSAELVPMLKNIIENPEIKIL”, the “soluble fraction (log2)” value is -0.795.

Take “HMEYRVRDKMTDILELLTEHRGRIALRDAFPTGTREELLAAFLALLELTKMQTVIVYQDRLYDDIQIVMK”: the “soluble fraction (log2)” value was -0.354.

Regarding “HMEYSTLEIYSQTKKDLIEKSPHLNKVVYDKDDGYIYLLSFEKEDDLTSFKSNIENDSDIKRIEANV”, the “soluble fraction (log2)” value turned out to be 0.121.

Take “HMEYTVNRLAQISGVSKRTLRYYDEIGLLRPERVNPNGYRIYGQMQVDLLQQILFYRELGLPLEEIREII”: the “soluble fraction (log2)” value was -0.502.

Take “HMFAATGVVNAPSGLVLRETASKGGNPLATVPDKAQVEIVEEDGEWYKVKVNEQTGYLFAEFVNKTE”: the “soluble fraction (log2)” value is -0.0895.

For the sequence “HMFAQDQLFKKDNSKVDVKILEINTTEIKYKLFTYQDGPTITVAKKDVALIIYQNGVHEVIT”, the “soluble fraction (log2)” value is -2.53.

Consider “HMFAVPAPEVDDILSEKKVDVLLLGPQVRYLLEQFTEKLKDKNIPIGVIPMVDYGMMNGSKVLALAEELIG”, for which the “soluble fraction (log2)” value amounted to 0.131.

Turning to “HMFDFGNHLRMLREKHGISQEELGRRVGRAGSVISNYENNIKIPTLDVLTTMARIYDVSLDYLVG”, the “soluble fraction (log2)” value is -1.59.

Turning to “HMFDFNNLSSLSDVELSVYRFVVNNPEKVAYMRVRDIAQKTHVANSSVMRFVHKIGFASFPEFKAYLKNIN”, the “soluble fraction (log2)” value is -0.997.

Turning to “HMFDITKEVLKQSGLYNLYKNDESLEGINRIQNIEELLNGIKDFVENNEKSQASVSSFLQDVALATDQ”, the “soluble fraction (log2)” value came out at 0.258.

“HMFDKVSVNNLAEAIGRLDGIYQDVLRLYYVHELPSKEIGKILNINHLTVNTRLKRAREKLFKMLKEE”: the “soluble fraction (log2)” value is -3.11.

As to “HMFDNPLSERDKEILNHISMGKSNKEIANQVGLAEQTIKNTISVILDKTFTSNRAQAASMATKNKW”, the “soluble fraction (log2)” value came out at 0.666.

For the sequence “HMFDPTDLPEKQLMVYEIIKSNNGINMTNIASLLGFNKTTVDNAIRALKKKEIVVFKGTNRSGGYFNT”, the “soluble fraction (log2)” value was -1.91.

Turning to “HMFEDEYLETMYAFYETDPQALVRTGDLASSLKVSPASATEMVQRLASKGFVDYIPYKGASLTELGLAM”, the “soluble fraction (log2)” value came out at 0.0785.

Consider “HMFEDYLRMKGLSIVSFSKQTGIPISTLRNLNKIRYDKWKIRYLEELSNVLNKTIQEIIEELKNMG”, for which the “soluble fraction (log2)” value was -3.5.

In the case of “HMFEFFKGIYSISLLKKDGIFFVTFKDENKEAVKHIFPEKPTALELGIKVMEMFEYKERYDGII”, the “soluble fraction (log2)” value is -0.455.

For “HMFEPLTDREREVLQALADGLSDKEIAERLYISPATVRTHITAILGKLDANSRLQAVVVAARHNLVTL”, the “soluble fraction (log2)” value was -0.478.

Turning to “HMFERISELLTDEELAVYKRGRNANASSVPKHADIADYRRATGVEALFGYLYIKGEIDRINQLFELA”, the “soluble fraction (log2)” value is -0.154.

Take “HMFESQYIGKIATAITDISAFSGRLKIYDENWEARTLGEDAPEIKKGAKVKIVRHDDLTMFVEKK”: the “soluble fraction (log2)” value was -0.397.

In the case of “HMFETLVLALAQAWPAERGPVEALQFEGGRLSLQRSGFADEQVEALRQRLSSEGWTLQTEQGRLILNKAG”, the “soluble fraction (log2)” value is -1.17.

As to “HMFFDSDTDIQNALNAENSIKKYQLFRTQTLYNSAQSDIDFVNQPEVKAKLFDALENLKNKLGFLAEPT”, the “soluble fraction (log2)” value was -0.0329.

For “HMFGIEIPEEAGKLQDYTLTDDDLEGGNTLKEIQFPQGARVVIIRRDDKFIIPDGSVELQSGDQLLIIYGE”, the “soluble fraction (log2)” value was -1.59.

Consider “HMFGSKDVKRAIEDYAAAMSSQPRALSAPQRKVLIRHLATSGLLQLRGAAKIVADELGISRASVYNALKV”, for which the “soluble fraction (log2)” value was -1.53.

Take “HMFHDPTMEETLINLKGITNEVLSLLSSSKIKKLEDLAEMSVPELRDIVENISDEEASALIMEARKPWF”: the “soluble fraction (log2)” value is -0.22.

“HMFHGEGVQANNIQAYIVLKMAAVNGAEDALDTADEVSEKMSREDLETATQVLGQIFRKYLMELQSA”: the “soluble fraction (log2)” value is -1.22.

Take “HMFIKVEVPDLTGMTLTEVRKALEEKNLKMGDIRPAGQTSLVAKVINQSPQAKMVVDEYSEVSIQFEE”: the “soluble fraction (log2)” value is -0.985.

Consider “HMFIMQTVALGSEGPDVRALQSILNRIGYNAGTVDGIFGSRTRQAVIAFQRNNGLAADGVAGPATWG”, for which the “soluble fraction (log2)” value worked out at 0.188.

On to “HMFINITAITGNNYNTPDAARNALPNTYNKKIGLVFTYRDLTNRYRVYLYNSETSNYIPLDSYM”, for which the “soluble fraction (log2)” value was -3.5.

As for “HMFIPGDSVRVHVKVVEGSNERIQMFEGVVIARQGSGVRENFTVRRISYGVGIERTFPVHSPRL”, the “soluble fraction (log2)” value was -0.226.

With “HMFISVDGLIHMGRTHLVILGGVEFARGDMIPETGEVVKSIGADSVVLELPDTGMRRTLNFV”, the “soluble fraction (log2)” value was -2.97.

Take “HMFKINNIIVSGLSEKSNLQTSEEIKNILFENIFFIKKDVLFKILEKNNLINSFEIKKIYPDTIEVKIKKT”: the “soluble fraction (log2)” value came to 0.0453.

As to “HMFKITNTLNKTAEVYLTIPENKKGKGKIMISVNGAFHELEAMTENDKIQSGAVVKVVRIENDNILIVET”, the “soluble fraction (log2)” value was -2.18.

On to “HMFKMRVNGKEVIGMAITAKPQANPIDVADEIKKFVIDANTKLPSTMKLEVLYDATGIFRASISEVIS”, for which the “soluble fraction (log2)” value was -1.08.

For the sequence “HMFLDKDTLNQLYRFGIALTGNEQDSQDVLHTAIERFLRNKPQQINQQAAYIRTIMRNYWYDELRKLKTQ”, the “soluble fraction (log2)” value was -3.06.

Turning to “HMFLPETEVKSFFHRGITKISPSLAMDIADFFRMPFAVILKRALALEVISDEQYRSFMTVKPEHV”, the “soluble fraction (log2)” value came to 0.137.

Regarding “HMFLSQQDINRANAASVTDMGDIIRRTFERNAAEINGLELSDAEKKDAVKQMATLATTALKTAAGAVNPY”, the “soluble fraction (log2)” value is -0.0457.

Consider “HMFLSSEERRERIIEVLRQQDEVTVVELSHRLGVSEVTTRKDLQQLEEQGYLTRVRGGAVVSGRGQL”, for which the “soluble fraction (log2)” value is -0.0348.

For the sequence “HMFMNFAEHLMALRKQRGWSQEELGSQIGVTRQTVSKWEMGQSTPELEKLVELSRLFGMSIDQLVGL”, the “soluble fraction (log2)” value was -0.118.

As to “HMFNISEKLKKYRNALGLTQTEVAEKIEITKPTYASYEKGKDISIGTLKKLADLFEVSFESFFSE”, the “soluble fraction (log2)” value is -0.283.

With “HMFNLFPHLSVLRNITLAPQKVKGLNRSESNEIAMSLLERVGIPEQSDKFPSQLSGGQQQRVAIARALAM”, the “soluble fraction (log2)” value is -0.502.

Regarding “HMFPELSEEEQIIVSLLQKQPDGLQINTLVVESNIPVNRMSGILFELEMKGIIRMAAGGVYRLL”, the “soluble fraction (log2)” value is -1.35.

On to “HMFQEGLVAPPAYTRPESFRGWEVPEILRSGNFPAIAKWQHEESLRLTRERRPAMLEAYERRT”, for which the “soluble fraction (log2)” value was -0.107.

Consider “HMFQNYTDAVVVASKTFFYNMPDESTRKSAYLIQGDRIMVEKSQRNFVYVTFTNEASGRTTTGWLKSDDLE”, for which the “soluble fraction (log2)” value was -2.65.

Regarding “HMFSDDEINRLKARDSILVNLRDSEKQVWELYTDGKTVQNIANQLNKHKQSISATIINIKNKISRKQNMLK”, the “soluble fraction (log2)” value is -0.709.

“HMFSGVQLGQAISEAIKRKNVSQKEVADHFGVKQPSVSGWIKNGRIDKKHLDKLIDYFSDVVTPSHFGIE”: the “soluble fraction (log2)” value came to 0.27.

Turning to “HMFSQDQIFLRSGEKIDARVIEVTPEFIKYKSKANPEGPLYSKKITDVLLITYANGTTEVYE”, the “soluble fraction (log2)” value was -0.764.

Take “HMFTDAEIKQFAAAAVEVTKIQQDSTISAADKQPKMLAVVQSSGLPPEKFNQIGQAAAADPALQQRIQA”: the “soluble fraction (log2)” value came to 0.038.

Regarding “HMFTEPQKLVKRILNMLGHRYDDASIQARSDFQASNNYHKVQVKKKRESMEEYTAWLEEMYDAYRIN”, the “soluble fraction (log2)” value was -1.49.

For “HMFTFEDMDKFESLLTTGLTDVQRRIYSLVTHDGKEYDLIAETLGISVEAVRMHMSRARKKIRENYKKID”, the “soluble fraction (log2)” value is -3.38.

With “HMFTIGENIRDLRLERAITQEQLAEQLNVSAPAVSKWERGEAYPDITLVPKLAEILGVSTDKLFGVD”, the “soluble fraction (log2)” value worked out at 0.0273.

With “HMFTKYSPDFKLSVILDMRKNNLGYGEVVRKYWNLDSYKESDRHRSQVRLWERIFLEEGVEGFM”, the “soluble fraction (log2)” value is -4.63.

As for “HMFTLDDLQATYDIFERAEQNSDAMLAFQKVITAEGLDFDLTSPQGIVDFFKGAAPTEIYDLYEAS”, the “soluble fraction (log2)” value was -0.547.

Regarding “HMFTNSTSSRQLTNSDDTLRLNISSQTRQMLPNGQPFGGSLSGKLLLVIYGATTRSIPAQTTPEKIVV”, the “soluble fraction (log2)” value is -0.198.

As for “HMFTSVDVAPDLRTAKVFYSVLGRKKSDKEINIAINQKRKAFKKFMGPELHLKNIPDLHFYYD”, the “soluble fraction (log2)” value was -0.369.

“HMFTYDLSERELTIIELVAKGLNNKELADTLFLSEGTIRNYLSTLLNKLDLRDRTQLAIFYYQHL”: the “soluble fraction (log2)” value was -2.16.

In the case of “HMFVEEGSLKKITFDTYEFNITDNLKSLRVTYQGLLPNLFREGQGVVIEGILLEQNYIQANTVF”, the “soluble fraction (log2)” value worked out at 0.249.

For “HMFVTGTTIKKLREEKRMTQGELAQMIGVSDKAVSKWETGRGLPDISLLEPLSRALGISVAELFAGQH”, the “soluble fraction (log2)” value was -0.612.

Consider “HMFWEGYLAARREQFLKDQQVLLGNEFRSNPDFWLEVASKEWAVVEERLSTGADVSEEVQETMGLDF”, for which the “soluble fraction (log2)” value is -2.13.

With “HMFYNSSDNAYKILEINKSATVDEIKAAYRKMAKKYHPDKVIHLGQEHQKGAEEKFRQVQEAYEELQKERG”, the “soluble fraction (log2)” value was 0.19.

“HMGAAVEVISLRYRSAAELLPIVRSLLSTEGKISADERTNSLIIVDSDEAVARVIHSLATLDT”: the “soluble fraction (log2)” value was -1.3.

Turning to “HMGADGIPGKNGENGETSYVHFAYATSADGKTGFSTTDTVGKTYMGQYADFEKADSEDPTKYRWGKFQGP”, the “soluble fraction (log2)” value was 0.0581.

Take “HMGAFAIHTASELSAGMRIRHERFGPGVITGIDTANPASGARIQVDFDNGTSKTLLLSYAKFQI”: the “soluble fraction (log2)” value is -2.53.

Consider “HMGAGKVVDGVTYDFVFDVDVADGQPPLRLPYNRGEDVYQAAERFILRNELPATYREQIVNFIVQNTPG”, for which the “soluble fraction (log2)” value is -0.116.

For “HMGAISGEQREFYTVFRGHLNSHVGEFKVEDIENLLMKAKTEVPDLLEEEFLKMGEAILNRYRN”, the “soluble fraction (log2)” value came out at 0.0818.

These data come from the domain aggregation screens of Martell et al. (2025).
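Further: 20 min heating vs room temperature control held 20 min.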
